Data published in publication PMC13486833, “Engineered HMGB1 construct with tandem Box B domains promotes tissue regeneration without potential for inflammation” (iScience, 2026).

Molecular target: T1, RAGE-Fc chimera protein (UniProt Q15109 23-342)
T1 construct: RAGE, recombinant Fc chimera BioTechne Cat# 1145-RG; As far as I recall the catalogue product is the human RAGE extracellular domain fused to human IgG1 Fc; source: bought: BioTechne
Assay: BLI; RAGE-Fc (15 μg/mL) immobilised on anti-IgG (AHC) biosensors; HMGB1 constructs 0–25 μM in solution; 200 s association/dissociation
Conditions: both partners purified

T1 sequence (Q15109 23-342, change not shown): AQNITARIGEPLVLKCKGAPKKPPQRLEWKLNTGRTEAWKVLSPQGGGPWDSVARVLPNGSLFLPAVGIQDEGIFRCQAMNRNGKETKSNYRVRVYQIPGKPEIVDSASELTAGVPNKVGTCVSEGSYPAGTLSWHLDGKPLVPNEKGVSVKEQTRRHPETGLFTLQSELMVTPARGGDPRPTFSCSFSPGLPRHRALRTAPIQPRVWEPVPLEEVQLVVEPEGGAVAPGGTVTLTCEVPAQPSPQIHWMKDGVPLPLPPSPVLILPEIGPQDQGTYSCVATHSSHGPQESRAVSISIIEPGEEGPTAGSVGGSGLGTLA

B1: dBB12L (FR-HMGB1 89–174::89–174) (other)
chain: KDPNAPKRPPSAFFLFCSEYRPKIKGEHPGLSIGDVAKKLGEMWNNTAADDKQPYEKKAAKLKEKYEKDIAAYRAKGKPDAAKKGVKDPNAPKRPPSAFFLFCSEYRPKIKGEHPGLSIGDVAKKLGEMWNNTAADDKQPYEKKAAKLKEKYEKDIAAYRAKGKPDAAKKGV
modifications: fully reduced Cys105 (printed numbering) in both copies; printed n = entry n+1 (C22/C44/C105 = C23/C45/C106 in P09429); direct tandem fusion, with native flanks acting as the linker
Question: Which Kd does the source give for B1 here?
Answer: 5.5 µM

Question: And the koff?
Answer: 0.206 s⁻¹
